These results are taken from publication PMC4619592.

Assay [1] has as its target Grouper nervous necrosis virus capsid protein, full length (338 residues) (orange-spotted grouper nervous necrosis virus (OSGNNV)). Nature of the assay: SDS-PAGE; oligomerization of three CPs in solution, bands compared to protein standards.
Assay [2] deals with N-ARM deletion mutant of GNNV capsid protein (residues 35-338) (orange-spotted grouper nervous necrosis virus (OSGNNV)). Described as above.
In assay [3] the target is Truncated P-domain of GNNV capsid protein (residues 214-338) (orange-spotted grouper nervous necrosis virus (OSGNNV)). Nature of the assay: SEC; purified P-domain on Superdex 75 10/300 GL in the presence of Ca2+, against protein standards. Background: In gel filtration, larger molecules generally elute earlier.
For assay [4] the target is unchanged. Nature of the assay: crystal structure; truncated P-domain (214-338), 1.2 Å; crystals from 0.2 M Ca acetate, 0.1 M MES (pH 6.5), 10% PEG8000.
For assay [5], the target named is delta-P-domain mutant of GNNV capsid protein (residues 35-217) (orange-spotted grouper nervous necrosis virus (OSGNNV)). Description: SDS-PAGE; oligomerization of three CPs in solution, bands compared to protein standards.
Assay [6] has the same target. Description: crystal structure; T = 1 delta-P-domain mutant (35-217), 3.1 Å; crystals from 0.2 M MgCl2, 0.1 M HEPES-Na (pH 7.5), 30% PEG400.

Usually stoichiometry N stands for a count of units in the complex or per binding partner. As for “Grouper nervous necrosis virus capsid protein, full length (338 residues) (natural protein)”, in assay [1], the stoichiometry N amounted to 3.
On to “N-ARM deletion mutant of GNNV capsid protein (residues 35-338) (domain or fragment)”, for which the stoichiometry N in assay [2] stood at 3.
“Truncated P-domain of GNNV capsid protein (residues 214-338) (domain or fragment)”: the stoichiometry N in assay [3] and in assay [4] was 3 each time.
“delta-P-domain mutant of GNNV capsid protein (residues 35-217) (domain or fragment)”: the stoichiometry N in assay [5] was determined as 2; in assay [6], 60.
